In US20190336544A1:

Columns and labels:
[1] = target: T1, mouseCD47, coated on ELISA plates (mouse) (UniProt Q61735); test: ELISA; mCD47 coated, culture supernatant
T1 sequence (looked up): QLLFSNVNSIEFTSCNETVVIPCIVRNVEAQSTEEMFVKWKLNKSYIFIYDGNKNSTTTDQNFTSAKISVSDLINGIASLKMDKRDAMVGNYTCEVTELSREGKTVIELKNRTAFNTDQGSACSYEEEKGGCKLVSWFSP

[2] = target: IgG (coating control in the ELISA binding assays); test: ELISA; IgG coated, culture supernatant

B1: secreted anti-mCD47 scFv (αmCD47scFv-V5-HIS, SYN3161) (scFv, from a related filing)
scFv: QVKLLQSGAALVKPGASVKMSCQASGYSFTDYWVTWVKQSHGQSLEWIGEIYPSNTVTNFNDNFKGKATLTVDKSTSTAYMELSRLTSEDSAIYYCTRIGNSGYRVGWFIYWGQGTLVTVLSGGGGSGGGGSGGGGSDTVLTQSPALAVSPGERVTISCKASESVSSHMHWYQQKPGQQPKLLIYKASNLASGVPARFSGSGSGTDFTLTIDPVEADDTATYFCQQGWNGPFTFGAGTRLELKRADAAGSGELGGSGKPIPNPLLGLDSTGSGHHHHHH
[1]
  ELISA signal (quantity not given): 0.527
[2]
  ELISA signal (quantity not given): 0.067
